Reference: patent US20240400715A1 (VIBRANT PHARMA, published 2024)
Values joined by “and” are separate entries in the source; they are usually repeats but may differ in a detail not shown here. Identical values can stand only once.

B1: 307 (TA2), configuration of FIG. 1X (bispecific antibody, IgG4)
heavy: QVQLVQSGGGVVQPGRSLRLSCKASGYTFTRYTMHWVRQAPGKGLEWIGYINPSRGYTNYNQKVKDRFTISRDNSKNTAFLQMDSLRPEDTGVYFCARYYDDHYCLDYWGQGTPVTVSSASTKGPSVFPLAPCSRSTSESTAALGCLVKDYFPEPVTVSWNSGALTSGVHTFPAVLQSSGLYSLSSVVTVPSSSLGTKTYTCNVDHKPSNTKVDKRVESKYGPPCPPCPAPEAAGGPSVFLFPPKPKDTLMISRTPEVTCVVVDVSQEDPEVQFNWYVDGVEVHNAKTKPREEQFNSTYRVVSVLTVLHQDWLNGKEYKCKVSNKGLPSSIEKTISKAKGQPREPQVYTLPPCQEEMTKNQVSLWCLVKGFYPSDIAVEWESNGQPENNYKTTPPVLDSDGSFFLYSRLTVDKSRWQEGNVFSCSVMHEALHNHYTQKSLSLSLGGGGSGGGGSEVQLVESGGGFVQAGESLTLSCTSSTLTFTPYRMAWYRQAPGKQRDLVADISSGDGRTTNYADFAKGRFTISRDNIKNTVFLRMTNLKPEDTAVYYCNTFVSFVGIARSWGQGTQVTVSS
chain: ESKYGPPCPPCPAPEAAGGPSVFLFPPKPKDTLMISRTPEVTCVVVDVSQEDPEVQFNWYVDGVEVHNAKTKPREEQFNSTYRVVSVLTVLHQDWLNGKEYKCKVSNKGLPSSIEKTISKAKGQPREPQVCTLPPSQEEMTKNQVSLSCAVKGFYPSDIAVEWESNGQPENNYKTTPPVLDSDGSFFLVSRLTVDKSRWQEGNVFSCSVMHEALHNRFTQKSLSLSL
light: DIQMTQSPSSLSASVGDRVTITCSASSSVSYMNWYQQTPGKAPKRWIYDTSKLASGVPSRFSGSGSGTDYTFTISSLQPEDIATYYCQQWSSNPFTFGQGTKLQIT
notes: chains put together from parts; IgG4, kappa; also called CEA-CD3 bispecific antibody 307; not shown: kappa light chain constant domain (CL)
B2: 310 (TA5), configuration of FIG. 1X (bispecific antibody, IgG4)
heavy: DVQLVQSGAEVKKPGASVKVSCKASGYTFTRYTMHWVRQAPGQGLEWIGYINPSRGYTNYADSVKGRFTITTDKSTSTAYMELSSLRSEDTATYYCARYYDDHYCLDYWGQGTTVTVSSASTKGPSVFPLAPCSRSTSESTAALGCLVKDYFPEPVTVSWNSGALTSGVHTFPAVLQSSGLYSLSSVVTVPSSSLGTKTYTCNVDHKPSNTKVDKRVESKYGPPCPPCPAPEAAGGPSVFLFPPKPKDTLMISRTPEVTCVVVDVSQEDPEVQFNWYVDGVEVHNAKTKPREEQFNSTYRVVSVLTVLHQDWLNGKEYKCKVSNKGLPSSIEKTISKAKGQPREPQVYTLPPCQEEMTKNQVSLWCLVKGFYPSDIAVEWESNGQPENNYKTTPPVLDSDGSFFLYSRLTVDKSRWQEGNVFSCSVMHEALHNHYTQKSLSLSLGGGGSGGGGSEVQLVESGGGFVQAGESLTLSCTSSTLTFTPYRMAWYRQAPGKQRDLVADISSGDGRTTNYADFAKGRFTISRDNIKNTVFLRMTNLKPEDTAVYYCNTFVSFVGIARSWGQGTQVTVSS
chain: ESKYGPPCPPCPAPEAAGGPSVFLFPPKPKDTLMISRTPEVTCVVVDVSQEDPEVQFNWYVDGVEVHNAKTKPREEQFNSTYRVVSVLTVLHQDWLNGKEYKCKVSNKGLPSSIEKTISKAKGQPREPQVCTLPPSQEEMTKNQVSLSCAVKGFYPSDIAVEWESNGQPENNYKTTPPVLDSDGSFFLVSRLTVDKSRWQEGNVFSCSVMHEALHNRFTQKSLSLSL
light: DIVLTQSPATLSLSPGERATLSCRASQSVSYMNWYQQKPGKAPKRWIYDTSKVASGVPARFSGSGSGTDYSLTINSLEAEDAATYYCQQWSSNPLTFGGGTKVEIK
notes: chains put together from parts; IgG4, kappa; also called CEA-CD3 bispecific antibody 310; not shown: kappa light chain constant domain (CL)

Target: T1, human CD3 on Jurkat cells (human, UniProt P07766 23-207; P04234 22-171; P09693 23-182)
T1 construct: whole, on cells; CD3 complex as on Jurkat (Clone E6-1) cells; also called CD3 expressing cells (Jurkat)
Test: FACS, Jurkat cells;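 also: flow cytometric binding of bispecific antibodies to Jurkat T cells, threefold serial dilutions incubated half an hour in the cold, EC50 taken from the fitted binding curve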
Description: The binding of the bispecific antibodies was tested on the CA expressing human lung adenocarcinoma cell line (H1573) and the CD3 expressing immortalized T lymphocyte line (Jurkat). The steps are as follows: the cells were harvested, counted, and resuspended in FACS buffer (PBS containing 0.1% BSA) at 2×10⁶ cells/ml. 100 μl of cell suspension was incubated in a V-bottom 96-well plate at 4° C. with 3-fold serial dilutions of bispecific antibodies (20 μg/ml-0.009 μg/ml) for 30 minutes; washed twice with pre-cooled FACS buffer. […] GraphPadPrism was used to obtain the binding curve.

| Binder | EC50 |
| --- | --- |
| B1 | 2.86 µg/mL and 22 nM |
| B2 | 0.181 µg/mL and 1.39 nM |
